PMC12273641, “A cryo-electron microscopy structure of yeast Pex5 in complex with a cargo uncovers a novel binding interface” (Journal of Cell Science, 2025)

Key:
[1] = target: T1, Pex5 (full-length Saccharomyces cerevisiae Pex5, 1-612, His-Sumo fusion cleaved off) (Saccharomyces cerevisiae, UniProt P35056 1-612); assay: cryo-EM structure; single-particle cryo-EM of the co-expressed, co-purified Pex5–Eci1 complex (2 mg/ml, in PBS); 2.7 Å global, 2.9 Å local refinement of Pex5 and the interface; conditions: both partners purified
T1 construct: Pex5, peroxisomal PTS1 cargo factor, Saccharomyces cerevisiae, full-length (1-612), cloned into pET28-bdSumo; only L276-F612 is resolved in the cryo-EM map; also called yeast Pex5; full-length yeast Pex5; source: for cryo-EM co-expressed with Eci1 and co-purified (Ni beads, elution by bdSumo protease, SEC); not shown: His tag, N-terminal, cleaved; bdSumo, N-terminal, cleaved
T1 sequence (looked up): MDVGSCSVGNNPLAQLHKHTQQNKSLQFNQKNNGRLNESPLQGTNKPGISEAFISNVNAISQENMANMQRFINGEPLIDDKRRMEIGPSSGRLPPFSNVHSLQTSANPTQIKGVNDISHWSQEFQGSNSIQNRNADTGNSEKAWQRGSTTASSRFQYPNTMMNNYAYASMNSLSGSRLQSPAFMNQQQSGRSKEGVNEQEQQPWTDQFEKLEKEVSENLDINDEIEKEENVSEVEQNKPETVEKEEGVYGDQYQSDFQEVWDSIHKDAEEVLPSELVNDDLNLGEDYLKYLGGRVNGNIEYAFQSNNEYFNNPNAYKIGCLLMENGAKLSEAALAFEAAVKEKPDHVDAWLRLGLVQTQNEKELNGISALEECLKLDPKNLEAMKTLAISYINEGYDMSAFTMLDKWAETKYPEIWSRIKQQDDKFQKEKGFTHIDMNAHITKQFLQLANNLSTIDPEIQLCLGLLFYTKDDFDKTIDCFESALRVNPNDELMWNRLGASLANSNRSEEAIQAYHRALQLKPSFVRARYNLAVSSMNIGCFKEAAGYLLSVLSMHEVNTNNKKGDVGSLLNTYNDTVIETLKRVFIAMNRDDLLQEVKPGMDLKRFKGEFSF

[2] = target: the molecule itself; assay: as above

stoichiometry N [1]: 6 Eci1 per Pex5
B1: FLAG-Eci1 wild type (Saccharomyces cerevisiae Δ3,Δ2-enoyl-CoA isomerase 1) (natural protein, UniProt Q05871 1-280, looked up)
chain: MSQEIRQNEKISYRIEGPFFIIHLMNPDNLNALEGEDYIYLGELLELADRNRDVYFTIIQSSGRFFSSGADFKGIAKAQGDDTNKYPSETSKWVSNFVARNVYVTDAFIKHSKVLICCLNGPAIGLSAALVALCDIVYSINDKVYLLYPFANLGLITEGGTTVSLPLKFGTNTTYECLMFNKPFKYDIMCENGFISKNFNMPSSNAEAFNAKVLEELREKVKGLYLPSCLGMKKLLKSNHIDAFNKANSVEVNESLKYWVDGEPLKRFRQLGSKQRKHRL
notes: Eci1 (Δ3,Δ2-enoyl-CoA isomerase 1), Saccharomyces cerevisiae, wild type, M1-L280, ends in the PTS1 tripeptide 278HRL280; cloned into the first open reading frame of pACYCDuet-1; A TEV cleavage site follows the N-terminal FLAG tag; no TEV cleavage is described; Hexamer by cryo-EM; also called Eci1 WT; Eci1 (WT); source: E. coli BL21(DE3): co-expressed with Pex5, in lysate (pull-down); purified …
stoichiometry N [2]: 6
